Laboratory results: paper PMC10085991

Legend:
[1] = target: β2 adrenergic receptor 148C-378C (min-C-β2AR with N148C and native C378) (human) (UniProt P07550); assay: FRET or BRET; single-molecule FRET (TIRF) between labels at 148C and 378C of the receptor; receptor immobilised by N-terminal FLAG on biotinylated M1 Fab; Gs^GDP 3.16 nM to 10 μM in solution; 200 μM isoproterenol; 25 °C; 50 mM HEPES pH 7.5, 100 mM NaCl, 5 mM MgCl2, 5 mM CaCl2, 0.01% MNG, 0.001% CHS; apparent EC50 of low-FRET occupancy
[2] = target: β2 adrenergic receptor 148C-378C (min-C-β2AR with N148C and native C378) (human) (UniProt P07550); assay: FRET or BRET; single-molecule FRET (TIRF), receptor immobilised by FLAG/M1 Fab; titration of Gs^GDP with 100 μM isoproterenol and 20 μM cmpd-6 (positive allosteric modulator); 25 °C
[3] = target: β2 adrenergic receptor 148C-378C (min-C-β2AR with N148C and native C378) (human) (UniProt P07550); assay: FRET or BRET; single-molecule FRET (TIRF), receptor immobilised by FLAG/M1 Fab; titration of Gs^GDP with 100 μM isoproterenol and 20 μM cmpd-15 (negative allosteric modulator); 25 °C

EC50 [1]: 100 nM
high-FRET dwell time, plateau at high Gs concentration [1]: 2 s
EC50 [2]: 26 nM
EC50 [3]: 350 nM
Substance: Gs heterotrimer (human Gαs, rat Gβ1, bovine Gγ2) (from UniProt P63092 1-394; P54311 1-340; P63212 1-71) (complex)
